In test [1] the target is 1bE2C (Hepatitis C virus, subtype 1b). The experiment in a line: ELISA, coated 1bE2C, anti-human IgG-HRP detection.
For test [2], the target named is 1aE2C、1bE2C、2aE2C、3aE2C、4aE2C、5aE2C、6aE2C. Briefly: ELISA, coated E2C of seven subtypes.

B1: 抗体HNC-5 (antibody, V domains shown)
VH: QVQLVQSGAEVKKPGSSVKVSCKVSGVTFKGYAISWVRQAPGQGLEWMGSVIPIFGAANYAQQFQGRVTITADESTSTAYMELRSLKFDDTAVYYCGRGDQLLWGITAFHYWGQGTLVTVSS
VL: EIVLTQSPGTLPLSPGEGATLSCRASHIVTSNNLAWYQQKPGQAPRLLIYGASNRATGIPDRFSGSGSGTDFTLTISRLEPEDFAMYYCQQYGSSPGTFGQGTKLEIK
Consider B1, for which the EC50 was 0.016 µg/mL in test [1] and 0.00216 to 0.0226 µg/mL in test [2].

The record behind these values is patent CN112239498A.
